According to patent US7314866B2, “Ku-70-derived Bax-suppressing peptides and use thereof for the protection of damaged cells” (Bloodcenter of Wisconsin, Inc., priority 2002, dated 2008):
Where no end group is shown, it is not given here. The star is where a group is joined. Biotin = O=C1N[C@H]2[C@H](CS[C@H]2CCCCC(=O)*)N1

B1: FITC-labeled BIP (VPMLK; SEQ ID NO: 1) (peptide)
peptide: VPMLK
modifications: also: FITC-labeled, position of label not given here
notes: also called FITC-BIP; FITC-V5
B2: biotin-IPMIK (SEQ ID NO: 5) negative control peptide (peptide)
peptide: Biotin-IPMIK
notes: also called biotin-labeled negative control (NC) peptide

How the values were obtained:
[1] = target: T1, interaction of Ku70 and Bax (Homo sapiens, UniProt Q07812); assay: Co-immunoprecipitation of endogenous Ku70 and Bax in cell lysates with added peptide; type: binding; details: peptide added to cell lysates
T1 construct: endogenous in cells; HeLa and 293 cells for the V6 peptide
Description: FIGS. 6A–D: HEK293T cells (10^7 cells) lysed in CHAPS buffer were incubated with 200 uM negative control (NC) peptide or (A) VPMLK (V5, SEQ ID NO: 1), (B) PMLKE (P5, SEQ ID NO: 2), (C) PMLK (P4, SEQ ID NO: 3), and (D) MLKE (M4, SEQ ID NO: 6) at the indicated concentrations for 1 hour. Immunoprecipitation was performed with anti-Ku70 monoclonal antibody or anti-Bax polyclonal antibody using CHAPS buffer as described in Methods. Mouse IgG and pre-immune rabbit serum (NRS) were used as negative controls.
By testing several deletion mutants of the Ku70 protein, I have identified the Bax-binding domain in Ku70. The domain comprises 6 amino acids (VPMLKE, SEQ ID NO: 7). This peptide (Ku70 Peptide V6) inhibits the interaction of Ku70 and Bax at the concentration of 20–80 μM in lysates prepared from human cultured cells (HeLa cells and human kidney epithelial 293 cells).
Endogenous protein: HEK293T (10^7 cells) were lysed in 200 ul of “CHAPS-based buffer” (150 mM NaCl, 10 mM Hepes, pH 7.4, 1.0% CHAPS) containing protease inhibitors (100 times dilution of Protease Inhibitors Cocktail; Sigma) according to the previously reported method (Hsu and Youle, J. Biol. Chem. 273:10777–10783, 1998). […]

endogenous Bax = target: T2, endogenous Bax (Homo sapiens, UniProt Q07812); assay: Co-immunoprecipitation of Flag-tagged Ku70 mutants and endogenous Bax; type: binding; details: HEK293T cells
T2 construct: endogenous in cells; host or cells: HEK293T
Description: Endogenous protein: HEK293T (10^7 cells) were lysed in 200 ul of “CHAPS-based buffer” (150 mM NaCl, 10 mM Hepes, pH 7.4, 1.0% CHAPS) containing protease inhibitors (100 times dilution of Protease Inhibitors Cocktail; Sigma) according to the previously reported method (Hsu and Youle, J. Biol. Chem. 273:10777–10783, 1998). After precleaning of 600 ul of the sample with 50 ul of Protein G-Sepharose at 4° C. for 1 hour, immunoprecipitations were performed by incubating 200 ul of lysates with 20 ul of Protein G-Sepharose preabsorbed with 2 ug of anti-Bax polyclonal (BD-Pharmingen) or anti-Ku70 monoclonal antibody (BD-Pharmingen) at 4° C. for 2 hours. In some cases, 2 ug of anti-Bax monoclonal antibody (clone 6A7, BD Pharmingen) was used to detect active form of Bax. After extensive washing in the buffer, beads were boiled in 40 ul of Laemmli buffer and 20 ul of the eluted proteins were subjected to SDS-PAGE. Co-precipitation of biotin-labeled peptides and endogenous Bax using streptavidin beads: HEK293T cells (10^7 cells) lysed in 200 ul CHAPS-based buffer were incubated with biotin-labeled negative control (NC) peptide or VPMLK (V5; SEQ ID NO: 1) peptide for 1 hour. The concentrations of NC and V5 peptide labeled with biotin are described in the figure legends. […]

HEK293T cells = assay: Bax-induced apoptosis in HEK293T cells (pcDNA3-Bax transfection, Hoechst staining); type: cell-based, human; details: 2.0 ug pCMV-2B construct co-transfected with pcDNA3-Bax
Description: FIG. 1 illustrates that new peptides designed from Ku70 show anti-Bax activity. FIG. 1A: scheme of Ku70 full-length (Ku70 wt), Ku701-577 (Ku70Δ578–609), or Ku70578-609 (Ku70Δ1–577). FIG. 1C: HEK293T cells were transfected with 1.0 ug of pCMV-2B-control vector (Control) or pcDNA3-Bax (Bax) together with 2.0 ug of pCMV-2B-Ku70 wt (Ku70 wt), pCMV-2B-Ku701-577 (Ku701-577), or pCMV-2B-Ku70578-609 (Ku70578-609). All the cells were also co-transfected with 0.5 ug pEGFP for the marking of transfected cells. Apoptosis in the transfected cells was analyzed 24 hours following transfection with Hoechst dye staining of the nucleus as described in Methods. FIG. 1D: HEK293T cells were incubated with 200 uM peptide composed of Ku70578-587 or Ku70596-600 for 4 hours using BioPorter reagent, and then transfected with 1.0 ug of pCDNA3-control vector (Control) or pcDNA3-Bax (Bax). The number of apoptotic cells was determined as described in FIG. 1C. FIG. 1E: HEK293T cells (10^6 cells) were incubated with 200 uM IPMIK (negative control peptide) or VPMLK (V5) and PMLKE (P5) peptides at the indicated concentrations for 1 hour and then incubated cells were transfected with 1.0 ug of pcDNA3-Bax. Also, unincubated cells were transfected with 1.0 ug of pcDNA3-Bax in the presence or absence of 200 uM z-VAD-fmk. The number of apoptotic cells was determined as described in FIG. 1C. FIG. 1F: Summary of the anti-Bax activity and sequence of all peptides used.
HEK293T and HeLa cells were cultured in MEM supplemented with 10% fetal bovine serum (FBS) and Du145 cells and mouse embryonic fibroblasts (MEFs) were in DMEM with 10% FBS. Transfection of the plasmids was performed by SuperFect (Qiagen) according to the manufacturer's manual. Apoptosis was induced by pcDNA3-human Bax (Bax-encoding plasmid)-transfection, Staurosporin (STS)-treatment and UVC-irradiation. The amount of the plasmids, the concentration of STS, and the energy of UVC-irradiation are described in the figure legends. Apoptosis in the transfected cells was analyzed as follows: A plasmid encoding enhanced green fluorescent protein (EGFP) (0.5 ug to 10^6 cells) was transfected to all the groups to mark the transfected cells. After the treatment, cells were stained with Hoechst dye and cells with apoptotic nuclei were counted in GFP-expressing cells under the fluorescent microscope as described by Matsuyama, et al., J. Biol. Chem. 273:30995–31001, 1998. Each point in the figures showing percentages of apoptosis represents the mean +/−SE of three experiments. Caspase activities of cells were measured by detecting the cleavage of fluorogenic substrate of Caspase (DEVD-afc) as previously described.
BioPorter-based peptide delivery was performed 4 hours before apoptosis induction.

[2] = target: T3, endogenous Bax in Ku70-deficient mouse embryonic fibroblasts (mouse, UniProt Q07813 1-192); assay: Scatchard analysis; FITC fluorescence before and after immunoprecipitation of Bax from Ku70-deficient MEF cytosol
T3 construct: also called endogenous Bax in Ku70-deficient MEFs
Description: The interaction of BIP and Bax was confirmed by experiments using the system of biotin-labeled BIP and streptavidin beads. Biotin-labeled BIP (biotin-VPMLK; SEQ ID NO: 1), but not negative control peptide (biotin-IPMIK; SEQ ID NO: 5) precipitated Bax from the cell lysates when the streptavidin beads were added to the samples.
Ku70-deficient MEFs (10^7 cells) were lysed in 200 ul of "detergent-free hypotonic buffer" (hypotonic (5 mM NaCl) phosphate buffered saline, pH 7.4) containing protease inhibitors (100 times dilution of Protease Inhibitors Cocktail; Sigma) according to the previously reported method (Hsu and Youle, supra, 1998). For Scatchard analysis, the cytosol fraction was used and NaCl was added to prepare the isotonic condition before immunoprecipitation as previously reported (Hsu and Youle, supra, 1998). […] FITC fluorescence of pre-immunoprecipitation ("B"+"F") and the supernatant following immunoprecipitation ("F") were measured by fluorescence microplate reader (Molecular Devices), and the values of "B+F" and "B" were calculated. Kd was calculated by Scatchard plot. […] No significant binding of FITC-V5 to the cellular components was detected in Bax-immunodepleted samples.

human Bax [3] = target: T4, human Bax (human, UniProt Q07812 1-192); assay: fluorescence microscopy of HeLa cells and of Du145 cells with or without pcDNA3-Bax
T4 construct: Protein in cell lysates or cells, not purified; also called endogenous Bax; pcDNA3-Bax (human)
Description: HeLa cells and transfected or untransfected Du145 cells with pcDNA3-Bax were incubated with 200 uM FITC-labeled VPMLK (V5; SEQ ID NO: 1) peptide for 1 hour prior to microscopic analysis by fluorescent microscope. For immunostaining, cells incubated with FITC-V5 peptide for 1 hour were fixed with 4% paraformaldehyde in phosphate buffered saline (PBS). Cells were permeablized with 0.5% Triton X-100 and 0.05% Tween-20 in PBS. Fixed cells were incubated in PBS containing 5% BSA at 37 C, and stained with anti-Bax monoclonal antibody (BD-Pharmingen, dilution 1:50) followed by the detection of Texas-Red labeled anti-mouse IgG (Jackson ImmunoResearch, dilution 1:100).

human Bax [4] = target: T4, human Bax; assay: streptavidin bead pull-down from HEK293T CHAPS lysates, Western blot of Bax
Description: Endogenous protein: HEK293T (10^7 cells) were lysed in 200 ul of "CHAPS-based buffer" (150 mM NaCl, 10 mM Hepes, pH 7.4, 1.0% CHAPS) containing protease inhibitors (100 times dilution of Protease Inhibitors Cocktail; Sigma) according to the previously reported method (Hsu and Youle, *J. Biol. Chem.* 273:10777–10783, 1998). After pre-cleaning of 600 ul of the sample with 50 ul of Protein G-Sepharose at 4° C. for 1 hour, immunoprecipitations were performed by incubating 200 ul of lysates with 20 ul of Protein G-Sepharose preabsorbed with 2 ug of anti-Bax polyclonal (BD-Pharmingen) or anti-Ku70 monoclonal antibody (BD-Pharmingen) at 4° C. for 2 hours. In some cases, 2 ug of anti-Bax monoclonal antibody (clone 6A7, BD Pharmingen) was used to detect active form of Bax. After extensive washing in the buffer, beads were boiled in 40 ul of Laemmli buffer and 20 ul of the eluted proteins were subjected to SDS-PAGE. *Co-precipitation of biotin-labeled peptides and endogenous Bax using streptavidin beads*: HEK293T cells (10^7 cells) lysed in 200 ul CHAPS-based buffer were incubated with biotin-labeled negative control (NC) peptide or VPMLK (V5; SEQ ID NO: 1) peptide for 1 hour. The concentrations of NC and V5 peptide labeled with biotin are described in the figure legends. […]

T1 sequence (Q07812 whole entry): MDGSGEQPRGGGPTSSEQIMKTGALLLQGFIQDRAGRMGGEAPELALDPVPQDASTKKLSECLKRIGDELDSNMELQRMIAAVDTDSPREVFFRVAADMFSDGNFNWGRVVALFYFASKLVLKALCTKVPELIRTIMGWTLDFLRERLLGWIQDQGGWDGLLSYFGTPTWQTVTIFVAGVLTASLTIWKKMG
T2 sequence (Q07812 whole entry): as above
T4 sequence (Q07812 whole entry): as above
T3 sequence (Q07813 whole entry): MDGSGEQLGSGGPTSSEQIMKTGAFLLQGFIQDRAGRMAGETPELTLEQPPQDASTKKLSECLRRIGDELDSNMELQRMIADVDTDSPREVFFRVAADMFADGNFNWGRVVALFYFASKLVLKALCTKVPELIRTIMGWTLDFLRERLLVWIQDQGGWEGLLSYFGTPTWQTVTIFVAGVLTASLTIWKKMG

Molecule | Effect on the interaction of Ku70 and Bax [1] | Binding of Flag-tagged Ku70 mutant to endogenous Bax (endogenous Bax) | Suppression of Bax-induced apoptosis by co-transfected Ku70 mutant (HEK293T cells) | further results
Ku70 Peptide NC: immediate next six amino acid sequence of Ku70, negative control (LGKFTV) [reference compound] | did not affect the interaction of Ku70 and Bax |  |  | 
Ku701-577: Ku70 mutant deleted of amino acids 578–609 |  | did not | not | 
Ku70578-609: Flag-tagged Ku70 mutant expressing the amino acids 578–609 of Ku70 (VPMLKEACRAYGLKSGLKKQELLEALTKHFQD; also: Flag-tagged) |  | binds endogenous Bax | suppressed Bax-induced apoptosis | 
MLKE [four amino acid deletion peptide] | did not interfere with Bax-Ku70 interaction |  |  | 
B1 |  |  |  | Kd [2]: 1300 nM; binding result (human Bax [3]): binds
B2 |  |  |  | binding result (human Bax [4]): no binding (tested: 200 uM)
